The results in this text go back to patent US20150197564A1 (Regeneron, published 2015).

In one test the target is T1, MfANGPTL3(17-170)-mmH (Macaca fascicularis).
T1 construct: also called N-terminal coiled-coil domain of ANGPTL3 from Macaca fascicularis with myc-myc-hexahistidine tag; Monkey ANGPTL3 (17-170)-mmH
T1 chain: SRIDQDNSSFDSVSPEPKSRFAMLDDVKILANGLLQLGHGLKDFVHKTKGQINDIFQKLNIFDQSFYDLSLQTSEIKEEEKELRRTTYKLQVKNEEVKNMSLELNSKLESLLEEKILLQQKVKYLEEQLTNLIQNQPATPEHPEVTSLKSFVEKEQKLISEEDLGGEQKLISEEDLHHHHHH
Briefly: SPR Biacore, antigen captured, 25C, pH 5.75, PBSP. How it is done:
(§1) All kinetic binding experiments were performed at 25° C. or 37° C. on a BIACORE™ T200 label-free molecular interaction instrument (GE Healthcare) using a CM5 sensor chip. Briefly, an antigen capture surface was generated by covalently coupling either an anti-mouse IgG-specific antibody (anti-mFc; GE Healthcare; catalog #BR-1008-38) or an anti-pentahistidine-specific antibody (Qiagen; catalog #34660) to the surface of a CM5 sensor chip using a standard amine coupling method.
In general terms: Surface plasmon resonance follows binding to a sensor surface in real time, without labels.

Another test concerns the target T2, hANGPTL3(17-460)-His (human, UniProt Q9Y5C1 17-460).
T2 construct: Bought protein (R&D Systems); also called full-length mature human ANGPTL3 with a C-terminal decahistidine tag; Human ANGPTL3 (17-460)-His
T2 sequence: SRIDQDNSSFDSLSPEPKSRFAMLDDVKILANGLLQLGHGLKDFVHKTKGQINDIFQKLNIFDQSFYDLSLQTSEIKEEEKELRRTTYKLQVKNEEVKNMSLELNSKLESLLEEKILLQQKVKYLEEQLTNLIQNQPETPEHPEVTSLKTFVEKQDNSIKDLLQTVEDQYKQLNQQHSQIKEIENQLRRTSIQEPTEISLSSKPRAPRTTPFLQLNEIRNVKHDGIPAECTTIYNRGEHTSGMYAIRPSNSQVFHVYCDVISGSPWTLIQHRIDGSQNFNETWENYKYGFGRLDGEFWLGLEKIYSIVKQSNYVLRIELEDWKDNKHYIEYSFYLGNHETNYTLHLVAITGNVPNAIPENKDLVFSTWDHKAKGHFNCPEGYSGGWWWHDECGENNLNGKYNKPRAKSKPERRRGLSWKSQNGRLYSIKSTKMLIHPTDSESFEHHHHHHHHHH
As to the kind of experiment: SPR Biacore, antigen captured, 25C, pH 5.75, PBSP. How it is done:
as §1

A further test addresses T3, hANGPTL3(17-170)-His (human, UniProt Q9Y5C1 17-170).
T3 construct: also called N-terminal coiled-coil domain of hANGPTL3 with a C-terminal hexahistidine tag; Human ANGPTL3 (17-170)-His
T3 sequence: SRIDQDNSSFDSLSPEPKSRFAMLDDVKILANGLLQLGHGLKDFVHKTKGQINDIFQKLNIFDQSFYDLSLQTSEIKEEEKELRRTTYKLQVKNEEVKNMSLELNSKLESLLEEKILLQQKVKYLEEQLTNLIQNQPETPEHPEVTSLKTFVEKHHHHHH
Briefly: SPR Biacore, antigen captured, 25C, pH 5.75, PBSP. How it is done:
as §1

For test [1], the target named is T4, N-terminal biotin tagged Peptide 2 (human, N-terminal biotin tag).
T4 construct: Immobilised on streptavidin biosensor tips; also called ANGPTL3 peptide
T4 peptide: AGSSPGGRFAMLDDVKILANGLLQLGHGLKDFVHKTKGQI
Briefly: OCTET RED label-free biosensor; biotinylated peptide on streptavidin-coated tips dipped into 1 uM antibody, binding monitored for 2.5 minutes. How it is done:
(§2) To assess the binding of the anti-ANGPTL3 antibody H4H1276S to peptides derived from the N-terminal coiled-coil region of ANGPTL3, a label-free biosensor binding assay was performed using OCTET® RED system (ForteDo, Inc.). […] The peptide-coated biosensor tips were then dipped into wells containing 1 μM of either anti-ANGPTL3 antibody H4H1276S or an isotype-matched negative control antibody, and binding was monitored for 2.5 minutes. It was observed that H4H1276S binds to the ANGPTL3 linear sequence defined by Peptide 2 but not the overlapping but distinct sequence defined by Peptide 3 (see also FIG. 1). The isotype control antibody also served as a positive control for loading of Peptide 1 (i.e., hANGPTL4 peptide) onto the biosensor, because this isotype control antibody specifically recognizes hANGPTL4.

Test [2] has as its target T5, C-terminal biotin tagged Peptide 3 (human, C-terminal biotin tag).
T5 construct: Immobilised on streptavidin biosensor tips; also called ANGPTL3 peptide
T5 peptide: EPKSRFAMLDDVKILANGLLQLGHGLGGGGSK
The test is described as above. How it is done:
as §2

The target in test [3] is T6, N-terminal biotin tagged Peptide 1 (human, N-terminal biotin tag).
T6 construct: Immobilised on streptavidin biosensor tips; also called control ANGPTL4 peptide; hANGPTL4 peptide
T6 peptide: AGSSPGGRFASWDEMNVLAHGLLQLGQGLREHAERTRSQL
The test is described as above. How it is done: as §2

For test [4], the target named is T7, C-terminal biotin tagged Peptide 2 (human, C-terminal biotin tag).
T7 construct: Immobilised on streptavidin biosensor tips; also called ANGPTL3 peptide
T7 peptide: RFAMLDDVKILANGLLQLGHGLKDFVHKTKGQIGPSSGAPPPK
The test is described as above. How it is done:
as §2

The target in test [5] is T8, N-terminal biotin tagged Peptide 3 (human, N-terminal biotin tag).
T8 construct: Immobilised on streptavidin biosensor tips; also called ANGPTL3 peptide
T8 peptide: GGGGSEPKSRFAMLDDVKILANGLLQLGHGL
The test is described as above. How it is done: as §2

B1: H4H1276S (antibody, IgG4, V domains shown)
VH: EVQLVESGGGVIQPGGSLRLSCAASGFTFDDYAMNWVRQGPGKGLEWVSAISGDGGSTYYADSVKGRFTISRDNSKNSLYLQMNSLRAEDTAFFYCAKDLRNTIFGVVIPDAFDIWGQGTMVTVSS
VL: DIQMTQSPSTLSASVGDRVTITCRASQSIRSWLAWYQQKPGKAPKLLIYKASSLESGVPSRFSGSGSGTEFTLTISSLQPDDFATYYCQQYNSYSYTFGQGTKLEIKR
For B1, the values for the Kd in the test with MfANGPTL3(17-170)-mmH, in the test with hANGPTL3(17-460)-His and in the test with hANGPTL3(17-170)-His were 21 nM, 67.5 nM and 24 nM, respectively. The results for the off-rate constant (koff) with MfANGPTL3(17-170)-mmH, with hANGPTL3(17-460)-His and with hANGPTL3(17-170)-His were 0.00432 s⁻¹, 0.00494 s⁻¹ and 0.00672 s⁻¹, respectively. For the same molecule, the values for the association rate constant (kon) with MfANGPTL3(17-170)-mmH, with hANGPTL3(17-460)-His and in the test with hANGPTL3(17-170)-His were 206000 M⁻¹ s⁻¹, 73200 M⁻¹ s⁻¹ and 280000 M⁻¹ s⁻¹, respectively. Further, the t1/2 came out at 2.7 min with MfANGPTL3(17-170)-mmH, 2.3 min with hANGPTL3(17-460)-His and 1.7 min with hANGPTL3(17-170)-His. Further, the binding result is recorded as “binds” in test [1]; “no binding (tested: 1 uM)” in test [2]; “no binding (tested: 1 uM)” in test [3]; “binds” in test [4]; “no binding (tested: 1 uM)” in test [5].

For orientation: Kd means the concentration at which binding is half-saturated. Higher therefore signals weaker binding. Usually koff stands for a measure of how fast the partners let go of each other. High values mean a short-lived complex, low ones a long-lived complex. What is called kon is the rate constant with which the complex forms. Low readings indicate slower complex formation, high ones faster complex formation.
